Measurements taken from the supplement of paper PMC9233669.
Fewer inactive variants are shown than the library holds.

Key:
biotinyl-Met-oxazolone = experiment: self-aminoacylation, catalytic enhancement (BMO) (fold over background); higher = more active; k-Seq, kA / k0A0; sequences stand for … in GGGAAUGGAUCCACAUCUACGAAUUC…UUCACUGCAGACUUGACGAAGCUG
Procedure, shortened: (§1)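 Each biotinyl-aminoacyl-oxazolone, at 2–1250 μM, was incubated with mutagenized RNA pools (0.43 μM) carrying a 21-nt variable region. The 50 μL reactions contained HEPES/NaCl/KCl/MgCl2/CaCl2 buffer with 5% acetonitrile at pH 6.9–7.0 and ran for 90 minutes at room temperature. After streptavidin capture, RNA was measured by qPCR in triplicate and by Illumina sequencing, and catalytic enhancement was calculated as median kA over the uncatalyzed rate from a pseudo-first-order fit of per-sequence fraction reacted.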

biotinyl-Trp-oxazolone = experiment: self-aminoacylation, catalytic enhancement (BWO) (fold over background); higher = more active; k-Seq, kA / k0A0; sequences stand for … in GGGAAUGGAUCCACAUCUACGAAUUC…UUCACUGCAGACUUGACGAAGCUG
Procedure, shortened: as §1

biotinyl-Val-oxazolone = experiment: self-aminoacylation, catalytic enhancement (BVO) (fold over background); higher = more active; k-Seq, kA / k0A0; sequences stand for … in GGGAAUGGAUCCACAUCUACGAAUUC…UUCACUGCAGACUUGACGAAGCUG
Procedure, shortened: as §1

biotinyl-Phe-oxazolone = experiment: self-aminoacylation, catalytic enhancement (BFO) (fold over background); higher = more active; k-Seq, kA / k0A0; sequences stand for … in GGGAAUGGAUCCACAUCUACGAAUUC…UUCACUGCAGACUUGACGAAGCUG
Procedure, shortened: as §1

biotinyl-Leu-oxazolone = experiment: self-aminoacylation, catalytic enhancement (BLO) (fold over background); higher = more active; k-Seq, kA / k0A0; sequences stand for … in GGGAAUGGAUCCACAUCUACGAAUUC…UUCACUGCAGACUUGACGAAGCUG
Procedure, shortened: as §1

biotinyl-Ile-oxazolone = experiment: self-aminoacylation, catalytic enhancement (BIO) (fold over background); higher = more active; k-Seq, kA / k0A0; sequences stand for … in GGGAAUGGAUCCACAUCUACGAAUUC…UUCACUGCAGACUUGACGAAGCUG
Procedure, shortened: as §1

| Sequence | self-aminoacylation (biotinyl-Met-oxazolone) | self-aminoacylation (biotinyl-Trp-oxazolone) | self-aminoacylation (biotinyl-Val-oxazolone) | self-aminoacylation (biotinyl-Phe-oxazolone) | self-aminoacylation (biotinyl-Leu-oxazolone) | self-aminoacylation (biotinyl-Ile-oxazolone) |
| --- | --- | --- | --- | --- | --- | --- |
| CCAGACUUCAAGCAACCGGUC [Fam1B.1 aminoacylation ribozyme variant] | 0.698 | 2 | 1.36 | 1.53 | 1.02 | 1.47 |
| CUACAGCAAACAAUCGGUCUG [Fam1A.1 aminoacylation ribozyme variant] | 0.482 | 0.574 | 0.65 | 0.421 | 0.577 | 0.48 |
| AAGUUUGCUAACUGUCGCAAG [Fam3.1 aminoacylation ribozyme variant] | 1.01 | 0.984 | 0.79 | 0.773 | 1 | 0.784 |
| AUUCACCAAGGUCUUCGGGUG [Fam2.2 aminoacylation ribozyme variant] | 5.94 | 4.45 | 4.41 | 37.2 | 6.3 | 4.41 |
| CCACACUUCAAGCAUUCGCUC [Fam1B.1 aminoacylation ribozyme variant] | 2.42 | 2.64 | 2.88 | 2.04 | 2.41 | 2.27 |
| CAACUUCAAACAAGCGGUCUG [Fam1A.1 aminoacylation ribozyme variant] | 1.24 | 1.3 | 1 | 1.19 | 1.12 | 1.42 |
| CUACUUCCAACAAUCGGUCUG [Fam1A.1 aminoacylation ribozyme variant] | 0.722 | 0.831 | 0.768 | 1.11 | 0.702 | 0.766 |
| AACUUUGCUAAUAUUCGCAAG [Fam3.1 aminoacylation ribozyme variant] | 1.51 | 1.75 | 1.65 | 1.42 | 1.94 | 1.76 |
| AUUACCCUAGUCAUCGAGUGC [Fam2.1 aminoacylation ribozyme variant] | 1.06 | 0.589 | 1.04 | 1.25 | 1.35 | 1.15 |
| AUUACUCUGUUCAUCGAGUGA [Fam2.1 aminoacylation ribozyme variant] | 2.88 | 3.94 | 1.94 | 3.86 | 3.42 | 1.9 |
| AUUACCCUGGUCGUCUAGUGA [Fam2.1 aminoacylation ribozyme variant] | 1.37 | 0.905 | 1.04 | 2.09 | 1.53 | 1.15 |
| CCUUACUUCAAGCAAUCGGUC [Fam1B.1 aminoacylation ribozyme variant] | 1.06 | 13 | 1.08 | 31.6 | 1.3 | 1.09 |
| CUACUUCUAACAAUCGGUCUC [Fam1A.1 aminoacylation ribozyme variant] | 0.634 | 0.571 | 0.664 | 0.799 | 0.572 | 0.686 |
| AUUAGCCUGUUCAUCGAGUGA [Fam2.1 aminoacylation ribozyme variant] | 5.64 | 7.22 | 3.27 | 18 | 5.5 | 3.04 |
| CGAUUUCAAACAAUCGGUCUG [Fam1A.1 aminoacylation ribozyme variant] | 1.46 | 5.97 | 1.66 | 16.4 | 1.63 | 1.74 |
| CCAUACUUCAAGCACUCGGUC [Fam1B.1 aminoacylation ribozyme variant] | 0.904 | 0.69 | 1.07 | 1.11 | 0.962 | 1.01 |
| AAGUUUGCUAAUCGUCGCGAG [Fam3.1 aminoacylation ribozyme variant] | 1.27 | 1.49 | 1.01 | 1.8 | 1.36 | 1.04 |
| CUACACUUCAUGCAAUCGGUC [Fam1B.1 aminoacylation ribozyme variant] | 0.623 | 0.496 | 0.693 | 0.689 | 0.516 | 0.707 |
| AAGUUUGCUAAAAGUCUCAAG [Fam3.1 aminoacylation ribozyme variant] | 1.24 | 1.45 | 0.996 | 4.24 | 0.875 | 1.11 |
| AAGUUUGCUAAUAAUCGCAUG [Fam3.1 aminoacylation ribozyme variant] | 1.05 | 1.15 | 0.926 | 1.21 | 0.932 | 0.866 |
| AAGUUUGCUAAUAGACGGAAG [Fam3.1 aminoacylation ribozyme variant] | 0.544 | 0.764 | 0.584 | 0.91 | 0.406 | 0.637 |
| AAGUUCGUUAAUAGUCGCAAG [Fam3.1 aminoacylation ribozyme variant] | 1.77 | 1.56 | 1.53 | 3.09 | 1.94 | 1.93 |
| CCACACUCCAAGCAAUCAGUC [Fam1B.1 aminoacylation ribozyme variant] | 0.699 | 0.672 | 0.911 | 1.54 | 0.73 | 0.781 |
| GUACUUCAACCAAUCGGUCUG [Fam1A.1 aminoacylation ribozyme variant] | 1.39 | 15.1 | 1.28 | 16.5 | 1.59 | 1.39 |
| AAAUUGGCUAAUAGUCGCAAG [Fam3.1 aminoacylation ribozyme variant] | 1.84 | 3.11 | 2.05 | 2.72 | 2.05 | 2.32 |
| CUACUUCGAACAAUCGGACUG [Fam1A.1 aminoacylation ribozyme variant] | 0.593 | 0.492 | 0.502 | 0.493 | 0.65 | 0.679 |

| Sequence | self-aminoacylation (biotinyl-Met-oxazolone) | self-aminoacylation (biotinyl-Trp-oxazolone) | self-aminoacylation (biotinyl-Val-oxazolone) | self-aminoacylation (biotinyl-Phe-oxazolone) | self-aminoacylation (biotinyl-Leu-oxazolone) | self-aminoacylation (biotinyl-Ile-oxazolone) |
| --- | --- | --- | --- | --- | --- | --- |
| AUGCACGUAGGUCAUCGGGUG [Fam2.2 aminoacylation ribozyme variant] | 4.47 | 5.33 | 3.89 | 45.4 | 4.72 | 3.52 |
| AUUCCCCUAGGUCAUCGGGUC [Fam2.2 aminoacylation ribozyme variant] | 4.08 | 4 | 5.52 | 22.8 | 5.52 | 4.5 |
| CUACUUCAAACAAUCGGCCUG [Fam1A.1 aminoacylation ribozyme variant] | 1.87 | 48.1 | 1.78 | 85.3 | 2.86 | 1.69 |
| CGGUUUGCUAAUAGUCGCAAG [Fam3.1 aminoacylation ribozyme variant] | 1.17 | 1.68 | 1.18 | 2.27 | 1.17 | 1.18 |
| CCCCACUUCAAGCAAUCGGUG [Fam1B.1 aminoacylation ribozyme variant] | 11 | 12.5 | 7.84 | 75.4 | 13.9 | 6.57 |
| AAGUUUGCUAAUACUCGCUAG [Fam3.1 aminoacylation ribozyme variant] | 0.532 | 0.445 | 0.507 | 0.624 | 0.594 | 0.63 |
| AUUCACAUAGGUCAUUGGGUG [Fam2.2 aminoacylation ribozyme variant] | 4.35 | 4.51 | 3.23 | 29.1 | 5.11 | 2.74 |
| GUACUUCAAACAAUCGGUCUU [Fam1A.1 aminoacylation ribozyme variant] | 1.14 | 12 | 1.3 | 12.8 | 1.49 | 1.43 |
| AAACACCUAGGUCAUCGGGUG [Fam2.2 aminoacylation ribozyme variant] | 2.46 | 4.7 | 3.09 | 23.9 | 3.04 | 3.41 |
| AUUGCCCUGGUCAUAGAGUGA [Fam2.1 aminoacylation ribozyme variant] | 9.01 | 10.9 | 4.65 | 57.9 | 8.58 | 4.05 |
| AUUUACCUAGGUCACCGGGUG [Fam2.2 aminoacylation ribozyme variant] | 4.23 | 3.83 | 3.08 | 26.5 | 6.09 | 3.61 |
| CUACCUCAAACAAUCGGUGUG [Fam1A.1 aminoacylation ribozyme variant] | 0.952 | 0.845 | 1.11 | 0.583 | 2.02 | 1.19 |
| AUUCAACUAGGUCAUCGGGUA [Fam2.2 aminoacylation ribozyme variant] | 2.01 | 2.89 | 2.19 | 7.29 | 2.16 | 1.78 |
| AUUAACCUAGGUCAUAGGGUG [Fam2.2 aminoacylation ribozyme variant] | 1.41 | 2.08 | 1.36 | 1.19 | 1.74 | 1.29 |
| ACUACCCUGGUCAUGGAGUGA [Fam2.1 aminoacylation ribozyme variant] | 3.35 | 3.33 | 2.59 | 11.6 | 3.32 | 2.86 |
| AUUAACCUAGGUCAUGGGGUG [Fam2.2 aminoacylation ribozyme variant] | 3.3 | 3.44 | 2.38 | 22.6 | 4.82 | 2.28 |
| CGACACUUCAAGCAAUUGGUC [Fam1B.1 aminoacylation ribozyme variant] | 0.864 | 0.777 | 0.718 | 0.985 | 0.668 | 0.908 |
| CUACUUCAAAUAAUGGGUCUG [Fam1A.1 aminoacylation ribozyme variant] | 0.956 | 0.583 | 0.814 | 0.624 | 1.01 | 0.875 |
| CUACUUCAGACAAUCGGACUG [Fam1A.1 aminoacylation ribozyme variant] | 0.586 | 0.652 | 0.829 | 0.835 | 0.662 | 0.864 |
| AUUAUCCUGAUCAUCGAGUGA [Fam2.1 aminoacylation ribozyme variant] | 11.1 | 11.8 | 4.92 | 60 | 11.4 | 4.92 |
| CGACACUUCAAGCACUCGGUC [Fam1B.1 aminoacylation ribozyme variant] | 1.38 | 2 | 1.32 | 1.46 | 1.3 | 1.28 |
| AUAACCCUCGUCAUCGAGUGA [Fam2.1 aminoacylation ribozyme variant] | 3.43 | 3.79 | 2.13 | 10.7 | 3.59 | 1.89 |
| CUACGUCAAACAAUCGGUCUC [Fam1A.1 aminoacylation ribozyme variant] | 1.09 | 1.32 | 1.04 | 1.24 | 0.765 | 0.998 |
| CUACUGCAGACAAUCGGUCUG [Fam1A.1 aminoacylation ribozyme variant] | 1.06 | 0.497 | 1.04 | 0.577 | 1.07 | 0.897 |
| GAGUUUGCUAGUAGUCGCAAG [Fam3.1 aminoacylation ribozyme variant] | 1.28 | 0.876 | 1.04 | 1.92 | 0.89 | 1.21 |
